Data set [1] concerns the molecule itself. Nature of the data set: X-ray fibre diffraction; Hfq11 filaments assembled in water, seen as bundles of approx. 20 nm fibers by TEM; powder diffraction at 270 K, Cu Kα, washed by centrifugation; reflections at 4.6 Å and 7.8–8 Å (cross-β).
Data set [2] concerns the molecule itself. Put plainly: ATR-FTIR; assembled Hfq CTR at 20 mg/mL in D2O, the amyloid state at the start of the lipid experiment.

B1: Hfq11, minimal 11-residue C-terminal assembling motif of E. coli Hfq (Hfq_(87-97)) (peptide)
peptide: SAQNTSAQQDS
notes: Hfq (host factor 1), E. coli, C-terminal region; Unlabelled synthetic peptide, studied as assembled filaments; also called Hfq 11-residues; 11-residue C-terminal Hfq peptide; source: synthetic peptide (Proteogenix), assembled in water at 4 °C at 20 mg/mL for >1 month
B1: the binding result in data set [1] was “binds”.

B2: Hfq 38-residue C-terminal region peptide (peptide)
peptide: SRPVSHHSNNAGGGTSSNYHHGSSAQNTSAQQDSEETE
notes: Hfq (host factor 1), E. coli, C-terminal region; The lipid experiment names its sample only 'assembled Hfq CTR'; also called Hfq 38-residues; Hfq CTR; source: synthetic peptide (Proteogenix), assembled at 4 °C at 20 mg/mL for >1 month (D2O for FTIR)
Regarding B2, the binding result in data set [2] is “binds”.

These data come from article PMC10590398, “Hfq C-terminal region forms a β-rich amyloid-like motif without perturbing the N-terminal Sm-like structure” (Communications Biology, 2023).
